Measured values published in article PMC11406361, “Several orphan solute carriers functionally identified as organic cation transporters: Substrates specificity compared with known cation transporters” (The Journal of Biological Chemistry, 2024).

What was measured:
Test in all cases: cells, lysate or membranes
[1] = substrate: COC(=O)[C@H]1[C@@H](OC(=O)c2ccccc2)C[C@@H]2CC[C@H]1N2C; settings: pH 7.4
[2] = substrate: COc1ccc2c3c1O[C@H]1C(=O)CC[C@@]4(O)[C@@H](C2)N(C)CC[C@]314; settings: pH 7.4
[3] = substrate: c1cnc2cc3c(cc2n1)[C@@H]1CNC[C@H]3C1; settings: other: SLC35E2A, HEK293, net uptake over empty vector cells; pH 7.4
[4] = substrate: C[N+](C)(C)CCO; settings: pH 7.4
[5] = substrate: CCCN1CCCC[C@H]1C(=O)Nc1c(C)cccc1C; settings: other: SLC35G3, HEK293, net uptake over empty vector cells; pH 7.4
[6] = substrate: CCCNC(C)C(=O)Nc1c(C)csc1C(=O)OC; settings: other: SLC35G3, HEK293, net uptake over empty vector cells; pH 7.4
[7] = substrate: CCOC(=O)C1(c2ccccc2)CCN(C)CC1; settings: other: SLC35G3, HEK293, net uptake over empty vector cells; pH 7.4
[8] = substrate: CNC(C)Cc1ccc2c(c1)OCO2; settings: other: SLC35G3, HEK293, net uptake over empty vector cells; pH 7.4
[9] = substrate: Clc1cccc(Cl)c1N=C1NCCN1; settings: other: SLC35G3, HEK293, net uptake over empty vector cells; pH 7.4
[10] = other: SLC35G4, HEK293, net uptake over empty vector cells
[11] = other: SLC35E4, HEK293, net uptake over empty vector cells
[12] = other: SLC35F2, HEK293, net uptake over empty vector cells
[13] = other: SLC35F5, HEK293, net uptake over empty vector cells
[14] = other: SLC35F3, HEK293, net uptake over empty vector cells
[15] = other: SLC35F4, HEK293, net uptake over empty vector cells
[16] = other: SLC44A1, HEK293, net uptake over empty vector cells

B1: SLC35E2A (Homo sapiens) (protein)
chain: MSSSVKTPALEELVPGSEEKPKGRSPLSWGSLFGHRSEKIVFAKSDGGTDENVLTVTITETTVIESDLGVWSSRALLYLTLWFFFSFCTLFLNKYILSLLGGEPSMLGAVQMLSTTVIGCVKTLVPCCLYQHKARLSYPPNFLMTMLFVGLMRFATVVLGLVSLKNVAVSFAETVKSSAPIFTVIMSRMILGEYTGRPSDREEREELQLQPGRGAAASDRRSPVPPSERHGVRPHGENLPGDFQVPQALHRVALSMALPCPMLPAS
B1 was tested, and the Km [1] was 165 (±47.7) μM, the Vmax [1] was 0.000683 µmol/min/mg and the Vmax/Km [1] was 4.14 µL/min/mg. For the same protein, the Km [2] was 92.0 (±31.0) μM, the Vmax [2] was 0.000317 µmol/min/mg and the Vmax/Km [2] was 3.44 µL/min/mg. The Km [3] was 474 (±190) μM, the Vmax [3] was 0.000847 µmol/min/mg and the Vmax/Km [3] was 1.79 µL/min/mg.

B2: SLC35G4 (Homo sapiens) (protein)
chain: MAGSHPYFNLPDSTHPSPPSTPPSLHWHQRCQPSDATNGLLVALLGGGLPAGFVGPLSRMAYQASNLPSLELVICRCLFHLPIALLLKLRGDPLLGPPDIRGRTCFCALLNVLNIGCAYSAVQVVPTGNAATVRKHSSTVCSAILTLCLESQVLSGYDWCGLLGSILGLIIIVGPGLWTLQEGTTGVYTGLGYVQAFLGGLALSLGLLVYRSLHFPSCLPTVAFLSGLVGLLGSVPGLFVLQSPVLPSDLLSWSCVGAVGILTLVSFTCVGYAVTKAHPALVCAVLHSEVVMALILQYFMLHETVAPSDIMGAGVVLGSIAIITARNLICERTGKVEE
B2 was tested, and the Km [4, 10] was 13.2 (±7.02) μM, the Vmax [4, 10] was 0.000108 µmol/min/mg and the Vmax/Km [4, 10] was 8.15 µL/min/mg.

B3: SLC35E4 (Homo sapiens) (protein)
chain: MCRCPPEHHDGRMTSAEVGAAAGGAQAAGPPEWPPGSPQALRQPGRARVAMAALVWLLAGASMSSLNKWIFTVHGFGRPLLLSALHMLVAALACHRGARRPMPGGTRCRVLLLSLTFGTSMACGNVGLRAVPLDLAQLVTTTTPLFTLALSALLLGRRHHPLQLAAMGPLCLGAACSLAGEFRTPPTGCGFLLAATCLRGLKSVQQSALLQEERLDAVTLLYATSLPSFCLLAGAALVLEAGVAPPPTAGDSRLWACILLSCLLSVLYNLASFSLLALTSALTVHVLGNLTVVGNLILSRLLFGSRLSALSYVGIALTLSGMFLYHNCEFVASWAARRGLWRRDQPSKGL
With B3 the Km [4, 11] was 245 (±331) μM, the Vmax [4, 11] was 4.19e-05 µmol/min/mg and the Vmax/Km [4, 11] was 0.17 µL/min/mg.

B4: SLC35F2 (Homo sapiens) (protein)
chain: MEADSPAGPGAPEPLAEGAAAEFSSLLRRIKGKLFTWNILKTIALGQMLSLCICGTAITSQYLAERYKVNTPMLQSFINYCLLFLIYTVMLAFRSGSDNLLVILKRKWWKYILLGLADVEANYVIVRAYQYTTLTSVQLLDCFGIPVLMALSWFILHARYRVIHFIAVAVCLLGVGTMVGADILAGREDNSGSDVLIGDILVLLGASLYAISNVCEEYIVKKLSRQEFLGMVGLFGTIISGIQLLIVEYKDIASIHWDWKIALLFVAFALCMFCLYSFMPLVIKVTSATSVNLGILTADLYSLFVGLFLFGYKFSGLYILSFTVIMVGFILYCSTPTRTAEPAESSVPPVTSIGIDNLGLKLEENLQETHSAVL
B4 was tested, and the Km [1] was 161 (±99.5) μM, the Vmax [1] was 0.000415 µmol/min/mg and the Vmax/Km [1] was 2.58 µL/min/mg. For the same protein, the Km [4, 12] was 32.6 (±14.9) μM, the Vmax [4, 12] was 8.1e-05 µmol/min/mg and the Vmax/Km [4, 12] was 2.48 µL/min/mg.

B5: SLC35F5 (Homo sapiens) (protein)
chain: MVPPRRHRGAGRPGVLSSSPPFRLRSAKFSGIALEDLRRALKTRLQMVCVFVMNRMNSQNSGFTQRRRMALGIVILLLVDVIWVASSELTSYVFTQYNKPFFSTFAKTSMFVLYLLGFIIWKPWRQQCTRGLRGKHAAFFADAEGYFAACTTDTTMNSSLSEPLYVPVKFHDLPSEKPESTNIDTEKTPKKSRVRFSNIMEIRQLPSSHALEAKLSRMSYPVKEQESILKTVGKLTATQVAKISFFFCFVWFLANLSYQEALSDTQVAIVNILSSTSGLFTLILAAVFPSNSGDRFTLSKLLAVILSIGGVVLVNLAGSEKPAGRDTVGSIWSLAGAMLYAVYIVMIKRKVDREDKLDIPMFFGFVGLFNLLLLWPGFFLLHYTGFEDFEFPNKVVLMCIIINGLIGTVLSEFLWLWGCFLTSSLIGTLALSLTIPLSIIADMCMQKVQFSWLFFAGAIPVFFSFFIVTLLCHYNNWDPVMVGIRRIFAFICRKHRIQRVPEDSEQCESLISMHSVSQEDGAS
In the case of B5, the Km [4, 13] is reported as 5.83 (±3.23) μM, the Vmax [4, 13] is reported as 3.48e-05 µmol/min/mg and the Vmax/Km [4, 13] is reported as 5.97 µL/min/mg.

B6: SLC35G3 (Homo sapiens) (protein)
chain: MAGSHPYFNQPDSTHPSPPSAPPSLRWYQRCQPSDATSGLLVALLGGGLPAGFVGPLSRMAYQASNLPSLELLIWRCLFHLPIALLLKLRGDPLLGTPDIRSRAFFCALLNILSIGCAYSAVQVVPAGNAATVRKGSSTVCSAVLTLCLESQGLSGYDWCGLLGCILGLIIIVGPGLWTLQEGTTGVYTALGYVEAFLGGLALSLRLLVYRSLHFPPCLPTVAFLSGLVGLLGSVPGLFVLQAPVLPSDLLSWSCVGAVGILALVSFTCVGYAVTKAHPALVCAVLHSEVVVALILQYYMLHETVAPSDIVAAGVVLGSIAIITAQNLSCERTGRVEE
In the case of B6, the Km [5] is reported as 151 (±60.7) μM, the Vmax [5] is reported as 0.000551 µmol/min/mg and the Vmax/Km [5] is reported as 3.64 µL/min/mg. The Km [6] was 143 (±119) μM, the Vmax [6] was 0.000291 µmol/min/mg and the Vmax/Km [6] was 2.04 µL/min/mg. The Km [7] was 57.7 (±44.9) μM, the Vmax [7] was 0.000265 µmol/min/mg and the Vmax/Km [7] was 4.6 µL/min/mg. For the same protein, the Km [8] was 141 (±50.4) μM, the Vmax [8] was 0.000606 µmol/min/mg and the Vmax/Km [8] was 4.31 µL/min/mg. The Km [1] was 466 (±117) μM, the Vmax [1] was 0.000739 µmol/min/mg and the Vmax/Km [1] was 1.59 µL/min/mg. For the same protein, the Km [9] was 48.2 (±23.9) μM, the Vmax [9] was 0.000234 µmol/min/mg and the Vmax/Km [9] was 4.85 µL/min/mg.

B7: SLC35F3 (Homo sapiens) (protein)
chain: MKKHSARVAPLSACNSPVLTLTKVEGEERPRDSPGPAEAQAPAGVEAGGRASRRCWTCSRAQLKKIFWGVAVVLCVCSSWAGSTQLAKLTFRKFDAPFTLTWFATNWNFLFFPLYYVGHVCKSTEKQSVKQRYRECCRFFGDNGLTLKVFFTKAAPFGVLWTLTNYLYLHAIKKINTTDVSVLFCCNKAFVFLLSWIVLRDRFMGVRIVAAILAIAGIVMMTYADGFHSHSVIGIALVVASASMSALYKVLFKLLLGSAKFGEAALFLSILGVFNILFITCIPIILYFTKVEYWSSFDDIPWGNLCGFSVLLLTFNIVLNFGIAVTYPTLMSLGIVLSIPVNAVIDHYTSQIVFNGVRVIAIIIIGLGFLLLLLPEEWDVWLIKLLTRLKVRKKEEPAEGAADLSSGPQSKNRRARPSFAR
In the case of B7, the Km [4, 14] is reported as 112 (±96.4) μM, the Vmax [4, 14] is reported as 0.000135 µmol/min/mg and the Vmax/Km [4, 14] is reported as 1.21 µL/min/mg.

B8: SLC35F4 (Homo sapiens) (protein)
chain: MDELLLDLFHKLTSGRQLAAGNGLCGISHKEQEVWKPGHNILVKMRKEDKSLVWLIHSTLARYTQVTNFLGTSRSSVTRCKPGANCPSSHSGISRQLSPLSVTEDSSAPILELQNQGSSGVCGHRVERQNRSADDGTQTHSENSSQENRIKARCLSCTSMVLKGIWGLLIILSVSSSWVGTTQIVKITYKNFYCPFFMTWFSTNWNIMFFPVYYSGHLATAQEKQSPMKKFRECSRIFGEDGLTLKLFLKRTAPFSILWTLTNYLYLLALKKLTATDVSALFCCNKAFVFLLSWIVLKDRFMGVRIVAAIMAITGIVMMAYADNFHADSIIGVAFAVGSASTSALYKVLFKMFLGSANFGEAAHFVSTLGFFNLIFISFTPVILYFTKVEHWSSFAALPWGCLCGMAGLWLAFNILVNVGVVLTYPILISIGTVLSVPGNAAVDLLKQEVIFNVVRLAATIIICIGFLLMLLPEEWDEITLRFINSLKEKKSEEHVDDVTDPSIHLRGRGRANGTVSIPLA
For B8, the Km [4, 15] was 47.4 (±48.1) μM, the Vmax [4, 15] was 6.28e-05 µmol/min/mg and the Vmax/Km [4, 15] was 1.32 µL/min/mg.

B9: SLC44A1 (Homo sapiens) (protein)
chain: MGCCSSASSAAQSSKREWKPLEDRSCTDIPWLLLFILFCIGMGFICGFSIATGAAARLVSGYDSYGNICGQKNTKLEAIPNSGMDHTQRKYVFFLDPCNLDLINRKIKSVALCVAACPRQELKTLSDVQKFAEINGSALCSYNLKPSEYTTSPKSSVLCPKLPVPASAPIPFFHRCAPVNISCYAKFAEALITFVSDNSVLHRLISGVMTSKEIILGLCLLSLVLSMILMVIIRYISRVLVWILTILVILGSLGGTGVLWWLYAKQRRSPKETVTPEQLQIAEDNLRALLIYAISATVFTVILFLIMLVMRKRVALTIALFHVAGKVFIHLPLLVFQPFWTFFALVLFWVYWIMTLLFLGTTGSPVQNEQGFVEFKISGPLQYMWWYHVVGLIWISEFILACQQMTVAGAVVTYYFTRDKRNLPFTPILASVNRLIRYHLGTVAKGSFIITLVKIPRMILMYIHSQLKGKENACARCVLKSCICCLWCLEKCLNYLNQNAYTATAINSTNFCTSAKDAFVILVENALRVATINTVGDFMLFLGKVLIVCSTGLAGIMLLNYQQDYTVWVLPLIIVCLFAFLVAHCFLSIYEMVVDVLFLCFAIDTKYNDGSPGREFYMDKVLMEFVENSRKAMKEAGKGGVADSRELKPMASGASSA
B9 was tested, and the Km [4, 16] was 28.9 (±18.5) μM, the Vmax [4, 16] was 6.01e-05 µmol/min/mg and the Vmax/Km [4, 16] was 2.08 µL/min/mg.
